Source: doi:10.1101/2023.06.14.544911

Columns and labels:
Test in all cases: pull-down
ZCCHC3 MF R247S (human) = test system: ZCCHC3 MF R247S (human)
[1] = target: T1, ZCCHC3 MF R168/247S R168S;R247S (human) (UniProt Q9NUD5)
T1 sequence: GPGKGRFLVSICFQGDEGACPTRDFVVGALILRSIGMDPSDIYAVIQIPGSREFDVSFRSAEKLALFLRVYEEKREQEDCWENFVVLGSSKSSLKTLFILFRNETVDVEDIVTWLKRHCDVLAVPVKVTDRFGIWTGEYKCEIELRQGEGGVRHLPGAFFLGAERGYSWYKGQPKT

ZCCHC3 MF R168S (human) = test system: ZCCHC3 MF R168S (human)

Question: Which results are given for HIV-1 LTR (R-U5) RNA?
Answer: binding signal (ZCCHC3 MF R247S (human)): 50 % of WT MF; binding signal [1]: 15 % of WT MF; binding signal (ZCCHC3 MF R168S (human)): 50 % of WT MF
